Tests used:
[1] = molecular target: Human EphA2 (ephrin receptor A2), native, in human tumor tissue (human) (UniProt P29317); test: IF tumor tissue NSCLC-SQ, 30 ug/ml
[2] = molecular target: Human EphA2 (ephrin receptor A2), native, in human tumor tissue (human) (UniProt P29317); test: IF tumor tissue ESO, 0.3 ug/ml
[3] = molecular target: Human EphA2 (ephrin receptor A2), native, in human tumor tissue (human) (UniProt P29317); test: IF tumor tissue RCC-papillary, 10 ug/ml
[4] = molecular target: Human EphA2 (ephrin receptor A2), native, in human tumor tissue (human) (UniProt P29317); test: IF tumor tissue PANC, 10 ug/ml
[5] = molecular target: Human EphA2 (ephrin receptor A2), native, in human tumor tissue (human) (UniProt P29317); test: IF tumor tissue NSCLC-SQ, 0.1 ug/ml
[6] = molecular target: Human EphA2 (ephrin receptor A2), native, in human tumor tissue (human) (UniProt P29317); test: IF tumor tissue NSCLC-SQ, 0.3 ug/ml
[7] = molecular target: Human EphA2 (ephrin receptor A2), native, in human tumor tissue (human) (UniProt P29317); test: IF tumor tissue ESO, 3 ug/ml
[8] = molecular target: Human EphA2 (ephrin receptor A2), native, in human tumor tissue (human) (UniProt P29317); test: IF tumor tissue MELA, 0.3 ug/ml
[9] = molecular target: Human EphA2 (ephrin receptor A2), native, in human tumor tissue (human) (UniProt P29317); test: IF tumor tissue MELA, 3 ug/ml
[10] = molecular target: Human EphA2 (ephrin receptor A2), native, in human tumor tissue (human) (UniProt P29317); test: IF tumor tissue NSCLC-Adeno, 1 ug/ml
[11] = molecular target: Human EphA2 (ephrin receptor A2), native, in human tumor tissue (human) (UniProt P29317); test: IF tumor tissue NSCLC-SQ, 10 ug/ml
[12] = molecular target: Human EphA2 (ephrin receptor A2), native, in human tumor tissue (human) (UniProt P29317); test: IF tumor tissue RCC-papillary, 1 ug/ml
[13] = molecular target: Human EphA2 (ephrin receptor A2), native, in human tumor tissue (human) (UniProt P29317); test: IF tumor tissue Uterine, 3 ug/ml
[14] = molecular target: Human EphA2 (ephrin receptor A2), native, in human tumor tissue (human) (UniProt P29317); test: IF tumor tissue MELA, 30 ug/ml
[15] = molecular target: Human EphA2 (ephrin receptor A2), native, in human tumor tissue (human) (UniProt P29317); test: IF tumor tissue PANC, 30 ug/ml
[16] = molecular target: Human EphA2 (ephrin receptor A2), native, in human tumor tissue (human) (UniProt P29317); test: tissue staining of human cancer samples, 3 ug/ml
[17] = molecular target: Human EphA2 (ephrin receptor A2), native, in human tumor tissue (human) (UniProt P29317); test: IF tumor tissue NSCLC-Adeno, 3 ug/ml
[18] = molecular target: Human EphA2 (ephrin receptor A2), native, in human tumor tissue (human) (UniProt P29317); test: IF tumor tissue NSCLC-Adeno, 0.1 ug/ml
[19] = molecular target: Human EphA2 (ephrin receptor A2), native, in human tumor tissue (human) (UniProt P29317); test: IF tumor tissue NSCLC-SQ, 1 ug/ml
[20] = molecular target: Human EphA2 (ephrin receptor A2), native, in human tumor tissue (human) (UniProt P29317); test: IF tumor tissue URO, 1 ug/ml
[21] = molecular target: Human EphA2 (ephrin receptor A2), native, in human tumor tissue (human) (UniProt P29317); test: IF tumor tissue URO, 30 ug/ml
[22] = molecular target: Human EphA2 (ephrin receptor A2), native, in human tumor tissue (human) (UniProt P29317); test: IF tumor tissue URO, 0.1 ug/ml
[23] = molecular target: Human EphA2 (ephrin receptor A2), native, in human tumor tissue (human) (UniProt P29317); test: IF tumor tissue Uterine, 0.1 ug/ml
[24] = molecular target: Human EphA2 (ephrin receptor A2), native, in human tumor tissue (human) (UniProt P29317); test: IF tumor tissue MELA, 10 ug/ml
[25] = molecular target: Human EphA2 (ephrin receptor A2), native, in human tumor tissue (human) (UniProt P29317); test: IF tumor tissue ESO, 10 ug/ml

Sequence of Human EphA2 (ephrin receptor A2), native, in human tumor tissue (human) (P29317 25-976): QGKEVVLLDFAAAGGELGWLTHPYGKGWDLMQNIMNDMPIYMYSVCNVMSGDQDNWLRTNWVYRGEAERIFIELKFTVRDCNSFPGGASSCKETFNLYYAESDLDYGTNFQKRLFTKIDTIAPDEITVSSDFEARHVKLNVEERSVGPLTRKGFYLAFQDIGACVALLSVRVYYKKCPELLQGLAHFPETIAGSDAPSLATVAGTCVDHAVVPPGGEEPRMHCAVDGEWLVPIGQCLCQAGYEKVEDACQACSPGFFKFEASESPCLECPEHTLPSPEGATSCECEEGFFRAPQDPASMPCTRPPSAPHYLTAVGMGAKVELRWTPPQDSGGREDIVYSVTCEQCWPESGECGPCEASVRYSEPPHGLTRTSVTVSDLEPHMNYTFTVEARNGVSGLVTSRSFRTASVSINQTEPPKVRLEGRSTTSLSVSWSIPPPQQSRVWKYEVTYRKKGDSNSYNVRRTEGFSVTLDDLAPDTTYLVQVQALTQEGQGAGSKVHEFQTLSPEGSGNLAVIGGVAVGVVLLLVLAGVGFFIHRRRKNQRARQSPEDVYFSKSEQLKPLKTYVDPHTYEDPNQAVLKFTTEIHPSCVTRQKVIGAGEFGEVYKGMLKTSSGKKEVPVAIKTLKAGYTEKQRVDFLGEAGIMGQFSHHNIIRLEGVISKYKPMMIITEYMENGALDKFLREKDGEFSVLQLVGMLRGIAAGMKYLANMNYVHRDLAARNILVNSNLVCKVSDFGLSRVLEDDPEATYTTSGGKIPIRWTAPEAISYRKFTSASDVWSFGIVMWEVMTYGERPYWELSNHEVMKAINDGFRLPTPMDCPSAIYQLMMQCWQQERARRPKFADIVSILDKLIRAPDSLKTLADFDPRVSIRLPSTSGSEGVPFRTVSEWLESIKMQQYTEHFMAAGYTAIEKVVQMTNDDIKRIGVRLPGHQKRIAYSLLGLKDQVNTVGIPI

AB-010018 (mouse monoclonal antibody precursor of DS-8895a; mouse IgG2a format)
tissue reactivity score [1]: 2 | tissue reactivity score [2]: 1 | tissue reactivity score [3]: 2 | tissue reactivity score [4]: 2 | tissue reactivity score [5]: 1 | tissue reactivity score [6]: 1 | tissue reactivity score [7]: 1 | tissue reactivity score [8]: 2 | tissue reactivity score [9]: 2 | tissue reactivity score [10]: 1 | tissue reactivity score [11]: 1 | tissue reactivity score [12]: 1 | tissue reactivity score [13]: 2 | tissue reactivity score [14]: 2 | tissue reactivity score [15]: 2 | Reactive (% of samples), Bladder Urothelial Carcinoma [16]: 77% | Reactive (% of samples), Breast Cancer [16]: 93% | Reactive (% of samples), Cervical Squamous Cell Carcinoma [16]: 75% | Reactive (% of samples), Colorectal Adenocarcinoma [16]: 85% | Reactive (% of samples), Head & Neck Squamous Cell Carcinoma [16]: 63% | Reactive (% of samples), Liver Hepatocellular Cell Carcinoma [16]: 39% | Reactive (% of samples), Melanoma [16]: 46% | Reactive (% of samples), Ovarian Cancer [16]: 71% | Reactive (% of samples), Soft Tissue Sarcoma [16]: 14% | Reactive (% of samples), Stomach Adenocarcinoma [16]: 88% | Reactive (% of samples), Testicular Cancer [16]: 17% | Reactive (% of samples), Thyroid Cancer [16]: 13% | Reactive (% of samples), Uterine Cancer [16]: 38% | tissue reactivity score [17]: 1 | tissue reactivity score [18]: 1 | tissue reactivity score [19]: 1 | tissue reactivity score [20]: 2 | tissue reactivity score [21]: 2 | tissue reactivity score [22]: 2 | tissue reactivity score [23]: 1 | tissue reactivity score [24]: 2 | tissue reactivity score [25]: 1

— patent publication US20250276077A1, “EPHA2 ANTIBODIES” (Immunome, Inc., priority 2022, published 2025)
